Target: histidine tagged PSMGFR peptide (MUC1* extra cellular domain)
Assay: SPR, histidine-tagged PSMGFR on 3.8% or 5.7% NTA SAM chip

histidine tagged PSMGFR peptide (MUC1* extra cellular domain), sequence (peptide, as listed by the source): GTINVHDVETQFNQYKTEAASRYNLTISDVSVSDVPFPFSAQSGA

SPR binding response (RUs): 70 RU
Substance: NM23-S120G (100% hexamer preparation) (from UniProt P15531 1-152) (ligand)
